Test results as given in patent US8962263B2, “Methods and compositions for detecting the activation state of multiple proteins in single cells” (The Board of Trustees of the Leland Stanford Junior …, priority 2001, dated 2015).

B1: ICAM-2: biochemically purified soluble human ICAM-2 protein from retrovirally transduced NIH3T3 cells; ICAM-2-FC fusion also used (protein, UniProt P13598 25-223, looked up)
extracellular domain: KVFEVHVRPKKLAVEPKGSLEVNCSTTCNQPEVGGLETSLDKILLDEQAQWKHYLVSNISHDTVLQCHFTCSGKQESMNSNVSVYQPPRQVILTLQPTLVAVGKSFTIECRVPTVEPLDSLTLFLFRGNETLHYETFGKAAPAPQEATATFNSTADREDGHRNFSCLAVLDLMSRGGNIFHKHSAPKMLEIYEPVSDSQ
modifications: extracellular domain
notes: biochemically purified soluble human ICAM-2 protein from retrovirally transduced NIH3T3 cells; ICAM-2-FC fusion also used

What was measured:
[1] = tested on: ezrin; assay: phosphotyrosine-protein based elisa for ezrin tyrosine phosphorylation upon ICAM-2 ligation; format: cell-based, human; settings: Jurkat cells
[2] = tested on: Pyk2; assay: sICAM-2 induced Pyk2 phosphorylation (phospho-tyrosine based ELISA, chemical genetic approach); format: cell-based; settings: phospho-tyrosine based ELISA
Method in brief: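 Chemical genetic approach: sICAM-2-stimulated cells treated with selected kinase/pathway inhibitors (PKC inhibitors BIM I, BIM II, staurosporine; tyrphostin A9; neomycin; piceatannol); phosphorylation status of Pyk2 and Syk measured by phospho-tyrosine ELISA.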

[3] = tested on: HL60 cells; assay: FACS based effector-target killing assay, human PBMC against CFSE labeled HL60 cells; format: cell-based; settings: 10 μg/ml, 50:1 E:T ratio, 4 hrs
Description: A) PBMC were either treated with ICAM-2, (10 μg/ml) in the presence of IL-2, for 12, hr and then incubated with CFSE labeled target HL60, cells at a 50:1, E:T ratio for 4, hrs. Remaining HL60, cells were quantified by flow cytometry. B) PBMC were treated with IL-2, (100, U/ml, 12, hrs) and treated with ICAM-1,-2, or 3, FC proteins (10, μg/ml) and used in a cytotoxicity assay as described above. Results are representative of 4, independent experiments.
(§1) Target cell lysis was measured by flow cytoemtric based detection of CFSE labeled HL60 cells. HL60 cells were labeled with 1 μg of CFSE (30 min, 37° C.). Targets were washed twice and mock treated, IL-2 activated (100 U/ml), CD3/CD28 activated (1 μg/ml), or treated with ICAM2 beads or soluble ICAM-1, -2, or 3 (10 μg/ml, 30 min, 37° C.) before plating at 10^4 target cells/well of a 96-well round bottom plate. CTLs were added at 50:1, 25:1, and 12.5:1 E:T ratio, and incubated at 37° C. for 4 hrs. Cells were then processed for multiparameter flow cytometry and intracellular perforin stain. Percent specific lysis was calculated by the following equation: % specific lysis=100-100×(experimental HL60 count/total control HL60 count). HL60 counts were detectable by the CFSE fluorescence. Percent perforin was calculated by the following equation: % perforin=100×[(experimental perforin MFI−isotype mAb MFI)/(total perforin MFI−isotype mAb MFI)]. MFI refers to mean fluorescent intensity of flow cytoemtric based intracellular detection. Cell conjugates were determined by flow cytometry as described (Morgan et al., 2001). Chemical inhibition was done at 10 μM of indicated compound (30 min, 37° C.) prior to stimulation as indicated. All experiments were performed in triplicate.

[4] = target: LFA-1 (Homo sapiens, UniProt P20701); settings: cited from earlier work
[5] = tested on: CD56 CD8 cytotoxic lymphocyte subsets; assay: intracellular perforin and granzyme-A in CD56CD8 subsets of human PBMC by flow cytometry; format: cell-based
Description: IL-2, activated PBMC (shown in A-1 and A-3) were mock-treated (IgG) (A-2) , ICAM-1, (A2), ICAM-2, (A4), or ICAM-3, (A4) treated (10, μg/ml of FC fusion protein) for 12 hrs prior to incubation with target HL60, cells at a 50:1, E:T ratio for 4, hrs. Cells were then prepared for flow cytometry with CD8-CY5PE, CD56-PE surface stains, and perforin-CY5, and granzyme-A-FITC intracellular stains. Cells were gated for CD56^+CD8^low, CD56^+CD8^med, CD56^+, CD8^high, CD56^−, CD8^−, , CD56^−-CD8^high, populations as shown in A-1 and A-3 and population frequencies within appropriate gate. […] Results are representative of 3 independent experiments and were similar at 25:1 and 12.5:1 E:T ratios (data not shown). Manual calibration was performed. […] Perforin percentage was calculated from the following equation where MFI equals mean fluorescent intensity: 100×[(MFIexperimental−MFIisotype mAb)/(MFIcontrol−MFlisotype mAb)] Unstimulated cells were used as control.
as §1

Sequence of LFA-1 (P20701 26-1170): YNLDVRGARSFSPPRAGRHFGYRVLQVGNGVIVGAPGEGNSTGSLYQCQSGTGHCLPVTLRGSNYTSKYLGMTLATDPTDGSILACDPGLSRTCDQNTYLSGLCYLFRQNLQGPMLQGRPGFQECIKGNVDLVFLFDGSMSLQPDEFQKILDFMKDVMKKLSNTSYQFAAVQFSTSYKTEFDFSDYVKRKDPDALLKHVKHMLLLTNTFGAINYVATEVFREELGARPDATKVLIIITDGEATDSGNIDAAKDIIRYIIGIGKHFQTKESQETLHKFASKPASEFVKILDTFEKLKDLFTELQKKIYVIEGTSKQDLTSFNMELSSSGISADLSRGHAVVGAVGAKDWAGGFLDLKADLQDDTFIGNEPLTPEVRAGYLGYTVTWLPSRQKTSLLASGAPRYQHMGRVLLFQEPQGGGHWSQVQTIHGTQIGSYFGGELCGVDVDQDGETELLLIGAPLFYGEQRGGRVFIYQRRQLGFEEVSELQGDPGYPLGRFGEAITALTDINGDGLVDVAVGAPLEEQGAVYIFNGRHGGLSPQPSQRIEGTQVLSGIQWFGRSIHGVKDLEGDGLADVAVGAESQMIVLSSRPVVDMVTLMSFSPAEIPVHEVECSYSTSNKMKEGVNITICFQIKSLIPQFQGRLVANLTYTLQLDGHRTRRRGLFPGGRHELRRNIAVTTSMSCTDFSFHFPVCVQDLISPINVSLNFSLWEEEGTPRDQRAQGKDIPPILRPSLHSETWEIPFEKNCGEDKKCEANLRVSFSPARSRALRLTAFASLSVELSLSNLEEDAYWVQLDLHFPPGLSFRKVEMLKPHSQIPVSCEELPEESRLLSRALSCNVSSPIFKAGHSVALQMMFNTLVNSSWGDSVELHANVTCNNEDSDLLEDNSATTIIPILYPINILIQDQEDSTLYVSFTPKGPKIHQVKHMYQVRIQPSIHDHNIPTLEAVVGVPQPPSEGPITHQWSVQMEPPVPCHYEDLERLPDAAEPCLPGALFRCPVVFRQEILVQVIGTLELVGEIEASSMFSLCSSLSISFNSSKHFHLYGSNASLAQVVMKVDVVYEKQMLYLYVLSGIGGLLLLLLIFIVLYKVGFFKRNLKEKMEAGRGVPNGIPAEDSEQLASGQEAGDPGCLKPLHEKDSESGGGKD
Sequence of LFA-1 (P05107 23-769 partner): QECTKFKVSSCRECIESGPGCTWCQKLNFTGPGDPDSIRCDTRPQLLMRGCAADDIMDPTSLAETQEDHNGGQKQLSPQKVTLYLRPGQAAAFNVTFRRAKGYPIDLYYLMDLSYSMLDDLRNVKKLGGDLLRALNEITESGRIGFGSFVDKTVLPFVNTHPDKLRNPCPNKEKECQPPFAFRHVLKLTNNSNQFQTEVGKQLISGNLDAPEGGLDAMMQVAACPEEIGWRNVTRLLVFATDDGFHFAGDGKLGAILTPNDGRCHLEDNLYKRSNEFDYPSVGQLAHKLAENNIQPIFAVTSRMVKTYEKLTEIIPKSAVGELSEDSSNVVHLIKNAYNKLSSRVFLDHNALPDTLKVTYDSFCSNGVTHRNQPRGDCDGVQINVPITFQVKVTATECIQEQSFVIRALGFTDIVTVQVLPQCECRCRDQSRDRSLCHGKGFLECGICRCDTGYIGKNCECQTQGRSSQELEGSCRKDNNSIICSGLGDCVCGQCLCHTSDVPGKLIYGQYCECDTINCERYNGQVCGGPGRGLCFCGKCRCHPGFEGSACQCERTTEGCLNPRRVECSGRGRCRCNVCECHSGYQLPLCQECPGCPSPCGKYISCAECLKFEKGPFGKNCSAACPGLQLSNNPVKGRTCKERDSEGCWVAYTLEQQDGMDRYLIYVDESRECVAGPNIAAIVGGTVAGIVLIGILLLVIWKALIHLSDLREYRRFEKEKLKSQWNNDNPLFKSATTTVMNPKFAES

Molecule	tyrosine phosphorylation of ezrin [1]	sICAM-2 induced Pyk2 phosphorylation [2]	target cell lysis of HL60 cells [3]	concentration inducing LFA-1 mediated adhesion ([4]; bulk cellular adhesion assay)	fold lower ICAM-2 soluble protein concentration compared with P1 [4]	granzyme-A negative population ([5]; CD56+CD8high population)	changes in intracellular perforin or granzyme-A ([5]; CD56+CD8low population)	frequency of the perforin negative population ([5]; CD56+CD8med population)
CN(C)CCCn1cc(C2=C(c3c[nH]c4ccccc34)C(=O)NC2=O)c2ccccc21 [bisindolymaleimide I]	minor affects	affected						
B1			could initiate target cell lysis in the presence of IL-2 but not in the absence of IL-2	1.3 µM	48 fold	58.3%	no significant changes	21.5%
